According to paper PMC6222199 (Journal of Bacteriology, 2018):

Assays:
[1] = target: the molecule itself; test: SEC-MALS; MiniDawn Treos MALS in line with a Superdex 200 Increase SEC column; without phosphoramidate
[2] = target: the molecule itself; test: SEC-MALS; MiniDawn Treos MALS in line with a Superdex 200 Increase SEC column; with the phosphoryl donor phosphoramidate (50 uM protein with 50 mM phosphoramidate in 20 mM Tris pH 8, 50 mM NaCl, 10 mM MgCl2, 10 min, room temperature)

Protein	stoichiometry N [1]	stoichiometry N [2]
RR_1586 (response regulator encoded by CDR20291_1586), wild type, unphosphorylated (natural protein, Clostridioides difficile R20291, UniProt A0A9R0BKD1 1-223, looked up, also called apo-RR_1586; wild-type RR_1586) MKVLIVEDNKILLESVVEELSKHFETEKCEDGEEALYLVNQNIYDLVILDLMLPNINGFDILKKMRVNNIDTPVLILTAKETLDDKVEAFTIGANDYLTKPFYMEELVARVYAILRTNGKIKERNGLEFKSLYLDTLEKRVYIEKEEIKLQNKQFNLLEYFVLNKGSILLKEQIYDRIWGIDSDATIEIVEVYVSNLRKKLSKYGYDKYIKTKRKVGYIFDDK	2	
phosphorylated RR_1586 (wild type treated with phosphoramidate) (natural protein, Clostridioides difficile R20291, UniProt A0A9R0BKD1 1-223, looked up, also called phospho-RR_1586) MKVLIVEDNKILLESVVEELSKHFETEKCEDGEEALYLVNQNIYDLVILDLMLPNINGFDILKKMRVNNIDTPVLILTAKETLDDKVEAFTIGANDYLTKPFYMEELVARVYAILRTNGKIKERNGLEFKSLYLDTLEKRVYIEKEEIKLQNKQFNLLEYFVLNKGSILLKEQIYDRIWGIDSDATIEIVEVYVSNLRKKLSKYGYDKYIKTKRKVGYIFDDK		4
